This note sets out measurements from PMC6479836, “Interaction of Nerve Growth Factor β with Adiponectin and SPARC Oppositely Modulates its Biological Activity” (International Journal of Molecular Sciences, 2019).

The chains are these.
T1: Recombinant murine full-length adiponectin (murine, UniProt Q60994 18-247)
T1 construct: also called fADPN; source: bought: Biovender Laboratory Medicine, Inc
T1 sequence (looked up): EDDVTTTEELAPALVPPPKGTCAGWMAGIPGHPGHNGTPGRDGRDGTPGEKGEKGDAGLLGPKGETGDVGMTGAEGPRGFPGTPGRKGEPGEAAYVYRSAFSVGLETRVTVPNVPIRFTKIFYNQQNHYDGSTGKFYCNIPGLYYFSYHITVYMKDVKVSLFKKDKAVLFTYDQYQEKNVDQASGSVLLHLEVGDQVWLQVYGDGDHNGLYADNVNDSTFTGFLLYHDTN

B1: Recombinant human platelet-derived growth factor-BB (PDGF-BB) (ligand, UniProt P01127 82-190, looked up)
chain: SLGSLTIAEPAMIAECKTRTEVFEISRRLIDRTNANFLVWPPCVEVQRCSGCCNNRNVQCRPTQVQLRPVQVRKIEIVRKKPIFKKATVTLEDHLACKCETVAAARPVT
notes: PDGF B chain, human, recombinant; The two copies follow from the printed name BB; source: bought: Wako Pure Chemical
B2: Nerve growth factor β (NGFβ) from mouse submaxillary glands (ligand, UniProt P01139 122-241, looked up)
chain: SSTHPVFHMGEFSVCDSVSVWVGDKTTATDIKGKEVTVLAEVNINNSVFRQYFFETKCRASNPVESGCRGIDSKHWNSYCTTTHTFVKALTTDEKQAAWRFIRIDTACVCVLSRKATRRG
notes: beta-nerve growth factor, mouse, the beta chain from submaxillary glands; The same protein was also tested after boiling (denatured), as a control; source: from mouse submaxillary glands; bought: Alomone Labs

Sequence of Secreted protein, acidic and rich in cysteine (SPARC) (P09486 18-303): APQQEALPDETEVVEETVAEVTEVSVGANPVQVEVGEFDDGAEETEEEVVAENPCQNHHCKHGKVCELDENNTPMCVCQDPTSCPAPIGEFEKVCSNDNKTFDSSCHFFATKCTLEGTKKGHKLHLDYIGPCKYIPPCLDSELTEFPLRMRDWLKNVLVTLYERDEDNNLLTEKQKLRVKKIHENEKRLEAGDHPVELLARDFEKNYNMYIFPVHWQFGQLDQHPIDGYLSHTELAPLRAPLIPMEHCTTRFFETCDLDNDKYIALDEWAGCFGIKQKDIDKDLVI

One assay addresses Secreted protein, acidic and rich in cysteine (SPARC) (UniProt P09486). The assay is described as follows: SPR; BIAcore X; SPARC immobilised on CM5 chip (3574 RU); growth factors as analytes in HBS-EP (10 mM HEPES, 150 mM NaCl, 0.005% Surfactant P20, pH 7.4), 37 °C, 20 µL/min, 105 s association, 120 s dissociation.
Settings: not given
(Surface plasmon resonance follows binding to a sensor surface in real time, without labels.)
In general, Kd refers to the free concentration of one partner at which half of the binding sites on the other are occupied at equilibrium, for simple one-to-one binding. By koff is commonly meant a measure of how fast the partners let go of each other. For orientation: kon means the second-order rate constant of association. The molecule “Recombinant human basic fibroblast growth factor (FGF2) (from UniProt P09038 143-288) (ligand)” showed a Kd of 14400 nM, a koff of 0.00195 s⁻¹ and a kon of 135 M⁻¹ s⁻¹.

“Recombinant human vascular endothelial growth factor VEGF-165 (ligand)” gave a Kd of 54.4 nM, a koff of 0.00413 s⁻¹ and a kon of 75800 M⁻¹ s⁻¹.

Turning to “Recombinant human transforming growth factor β1 (TGFβ1) (from UniProt P01137 279-390) (ligand)”, the Kd came out at 24300 nM, the koff amounted to 0.0192 s⁻¹ and the kon amounted to 790 M⁻¹ s⁻¹.

Molecule B1 yielded a Kd of 24.3 nM, a koff of 0.000903 s⁻¹ and an association rate constant (kon) of 37100 M⁻¹ s⁻¹.

B2 displayed a Kd of 59.4 nM, a koff of 0.011 s⁻¹ and a kon of 186000 M⁻¹ s⁻¹.

The target in the next assay is T1, Recombinant murine full-length …. The assay is described as follows: SPR; BIAcore X; full length adiponectin immobilised on CM5 chip (2025 RU); growth factors as analytes in HBS-EP pH 7.4, 37 °C, 20 µL/min, 105 s association, 120 s dissociation. The note with it: both partners purified.
Consider B1, for which the Kd is 24.5 nM, the dissociation rate constant (koff) is 2.82e-05 s⁻¹ and the kon was 1150 M⁻¹ s⁻¹.

Take B2: the Kd amounted to 103 nM, the koff is 0.00597 s⁻¹ and the kon was found to be 57600 M⁻¹ s⁻¹.

A further assay deals with Recombinant murine globular adiponectin (murine). Put plainly: SPR; BIAcore X; globular adiponectin immobilised on CM5 chip (12707 RU); growth factors as analytes in HBS-EP pH 7.4, 37 °C, 20 µL/min, 105 s association, 120 s dissociation.
Settings: not given
Regarding B1, the Kd came out at 70.4 nM, the koff was 0.00738 s⁻¹ and the kon is 105000 M⁻¹ s⁻¹.

On to B2, for which the Kd is 1260 nM, the koff is 0.0145 s⁻¹ and the kon is 11500 M⁻¹ s⁻¹.
